Test results published in patent publication US20230114801A1 (SYSTIMMUNE, published 2023).

Assays:
[1] = biological target: T1, human CD3 (human, UniProt P07766 23-126; P04234 22-105); assay: BLI (Octet), binder on AHC sensor, 100 nM human CD3, 1:1 fit
T1 construct: also called His-tagged human CD3; human CD3 (Acro CDD-H52W1)

[2] = biological target: T2, human EGFR (human, UniProt P00533 25-645, limits assumed); assay: BLI (Octet), binder on AHC sensor, 200 nM human EGFR, 1:1 fit; molecule has two EGFR-binding domains, same value printed under D1 and D4
T2 construct: Soluble antigen in Octet; construct not described

[3] = biological target: T3, human HER3 (human, UniProt P21860 20-643); assay: BLI (Octet), binder on AHC sensor, 200 nM human HER3, 1:1 fit; molecule has two HER3-binding domains, same value printed under D2 and D5
T3 construct: Soluble antigen in Octet; bought; also called human HER3 (Acro ER3-H5223)

B1: SI-75P8 (other)
chain 1: EVQLQESGGGLVQAGDSLSLSCLVSGRSFNSYTMGWFRQAPGKEREFVAAILWSGPTTYYADSVKGRFTISRDNAKNTVYLQMNSLKPEDTAVYYCAAALGVLVLAPGNVYSYWGQGTQVTVSSGGGGSGGGGSQVQLQESGGRLVQPGEPLSLTCKTSGIDLSSNAIGWVRQAPGKGLEWIGVIFGSGNTYYASWAKGRFTISRSTSTVYLKMNSLRSEDTAIYYCARGGYSSDIWGQGTLVTVSSASTKGPSVFPLAPSSKSTSGGTAALGCLVKDYFPEPVTVSWNSGALTSGVHTFPAVLQSSGLYSLSSVVTVPSSSLGTQTYICNVNHKPSNTKVDKRVEPKSCDKTHTCPPCPAPEAAGGPSVFLFPPKPKDTLMISRTPEVTCVVVDVSHEDPEVKFNWYVDGVEVHNAKTKPREEQYNSTYRVVSVLTVLHQDWLNGKEYKCAVSNKALPAPIEKTISKAKGQPREPQVYTLPPSRDELTKNQVSLSCAVKGFYPSDIAVEWESNGQPENNYKTTPPVLDSDGSFFLVSKLTVDKSRWQQGNVFSCSVMHEALHNHYTQKSLSLSPGGGGGSGGGGSQVQLQQSGPGLVKPSETLSITCTVSGFSLTNYGVHWIRQAPGKGLEWLGVIWSGGNTDYNTPFTSRFTITKDNSKNQVYFKLRSVRADDTAIYYCARALTYYDYEFAYWGQGTLVTVSSGGGGSGGGGSGGGGSGGGGSEIVLTQSPSTLSVSPGERATFSCRASQSIGTNIHWYQQKPGKPPRLLIKYASESISGIPDRFSGSGSGTEFTLTISSVQSEDFAVYYCQQNNNWPTTFGPGTKLTVL
chain 2: QVQLVQSGGGLVQAGGSLSLSCAFSGRTFSMYTMGWFRQAPGKEREFVAANRGRGLSPDIADSVNGRFTISRDNAKNTLYLQMDSLKPEDTAVYYCAADLQYGSSWPQRSSAEYDYWGQGTTVTVSSGGGGSGGGGSDPQLTQSPSSLSATVGQRVTINCQSSQSVAKNNNLAWFQQKPGKPPKLLIYSASTLAAGVPSRFSGSGSGTQFTLTITRVQSEDFATYYCSARDSGNIQSFGGGTRVEIKRTVAAPSVFIFPPSDEQLKSGTASVVCLLNNFYPREAKVQWKVDNALQSGNSQESVTEQDSKDSTYSLSSTLTLSKADYEKHKVYACEVTHQGLSSPVTKSFNRGECGGDKTHTCPPCPAPEAAGGPSVFLFPPKPKDTLMISRTPEVTCVVVDVSHEDPEVKFNWYVDGVEVHNAKTKPREEQYNSTYRVVSVLTVLHQDWLNGKEYKCAVSNKALPAPIEKTISKAKGQPREPQVYTLPPSRDELTKNQVSLWCLVKGFYPSDIAVEWESNGQPENNYKTTPPVLDSDGSFFLYSKLTVDKSRWQQGNVFSCSVMHEALHNRFTQKSLSLSPGGGGGSGGGGSQVQLQESGGGLVKPGGSLSLSCAASGFTFSSYWMSWVRQAPGKGLEWVANINRDGSASYYVDSVKGRFTISRDDAKNSLYLQMNSLRAEDTAVYYCARDRGVGYFDLWGRGTLVTVSSGGGGSGGGGSGGGGSQSALTQPASVSGSPGQSITISCTGTSSDVGGYNFVSWYQQHPGKAPKLMIYDVSDRPSGVSDRFSGSKSGNTASLIISGLQADDEADYYCSSYGSSSTHVIFGGGTKVTVL
notes: D1 αEGFR VHH, D2 αHER3 VHH, D3 αCD3* (Fab), D4 αEGFR scFv, D5 αHER3 scFv
[1]
  Kd: 44.1 nM
[2]
  Kd: 6.22 nM
[3]
  Kd: 0.786 nM
